Results reported in PMC10073093, “TGFBI remodels adipose metabolism by regulating the Notch-1 signaling pathway” (Experimental & Molecular Medicine, 2023).

T1: Recombinant Notch-1 protein (UniProt P46531 19-2555)
T1 chain: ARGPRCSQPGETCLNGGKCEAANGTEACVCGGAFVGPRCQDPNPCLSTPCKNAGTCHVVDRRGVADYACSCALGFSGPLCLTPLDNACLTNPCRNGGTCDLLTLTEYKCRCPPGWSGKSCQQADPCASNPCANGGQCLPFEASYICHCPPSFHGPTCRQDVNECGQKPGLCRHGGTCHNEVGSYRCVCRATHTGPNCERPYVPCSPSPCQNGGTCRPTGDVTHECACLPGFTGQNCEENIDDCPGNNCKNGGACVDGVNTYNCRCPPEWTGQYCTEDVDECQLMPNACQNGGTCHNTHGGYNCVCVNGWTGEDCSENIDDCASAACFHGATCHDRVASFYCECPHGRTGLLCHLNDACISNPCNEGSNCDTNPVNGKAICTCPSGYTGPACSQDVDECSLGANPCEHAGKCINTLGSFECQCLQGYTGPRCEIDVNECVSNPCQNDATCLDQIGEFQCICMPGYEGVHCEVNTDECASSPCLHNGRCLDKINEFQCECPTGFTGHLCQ

T2: Recombinant TGFBI (transforming growth factor-beta-induced protein) (UniProt Q15582 24-683)
T2 construct: Transforming growth factor-beta-induced protein (TGFBI, βig-H3); cDNA inserted into the EcoRV and EcoRI sites of pET-29b; also called βig-H3; keratoepithelin; source: E. coli, IPTG-induced, purified (Ni-NTA column, dialyzed)
T2 sequence (looked up): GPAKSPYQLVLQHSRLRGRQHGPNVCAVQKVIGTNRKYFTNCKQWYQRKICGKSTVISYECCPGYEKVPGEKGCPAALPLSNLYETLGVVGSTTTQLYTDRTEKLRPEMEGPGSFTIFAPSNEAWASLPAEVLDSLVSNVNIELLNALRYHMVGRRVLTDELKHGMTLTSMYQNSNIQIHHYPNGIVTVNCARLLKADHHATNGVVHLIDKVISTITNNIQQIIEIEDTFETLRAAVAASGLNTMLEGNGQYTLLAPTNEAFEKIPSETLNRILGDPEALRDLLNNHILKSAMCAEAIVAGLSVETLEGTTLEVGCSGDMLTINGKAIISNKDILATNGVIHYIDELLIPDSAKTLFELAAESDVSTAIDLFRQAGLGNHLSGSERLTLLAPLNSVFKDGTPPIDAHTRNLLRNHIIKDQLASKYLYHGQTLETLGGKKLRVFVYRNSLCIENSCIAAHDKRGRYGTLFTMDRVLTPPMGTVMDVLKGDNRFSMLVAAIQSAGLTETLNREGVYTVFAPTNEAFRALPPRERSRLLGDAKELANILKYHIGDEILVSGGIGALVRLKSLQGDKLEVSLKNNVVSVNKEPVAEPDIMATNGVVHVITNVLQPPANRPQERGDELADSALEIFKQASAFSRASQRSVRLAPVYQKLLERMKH


Legend:
[1] = biological target: T1, Recombinant Notch-1 protein; test: ELISA
[2] = biological target: T2, Recombinant TGFBI (transforming growth …); test: ELISA; recombinant Notch-1 (2 g/ml as printed, in PBS) coated on 96-well polystyrene plates at RT overnight; blocked with 1% BSA in PBS; Jagged-1 or TGFBI added at 0 to 2000 ng/ml; biotinylated antibodies, streptavidin-HRP, OD 450 nm; Kd (nM) = ED50 (ng/mL)/molecular weight of binding protein; settings: both partners purified

Binder	EC50 [1] [µg/mL]	Kd [2] [nM]
Recombinant TGFBI (transforming growth factor-beta-induced protein) (natural protein, Species, supplier and limits not stated. Human assumed (mouse Q01705 is possible). Limits follow the usual commercial recombinant Notch-1 ectodomain fragment (N-terminal EGF repeats including ligand-binding EGF 11-12), recalled rather than printed; any Fc carrier omitted.) GPAKSPYQLVLQHSRLRGRQHGPNVCAVQKVIGTNRKYFTNCKQWYQRKICGKSTVISYECCPGYEKVPGEKGCPAALPLSNLYETLGVVGSTTTQLYTDRTEKLRPEMEGPGSFTIFAPSNEAWASLPAEVLDSLVSNVNIELLNALRYHMVGRRVLTDELKHGMTLTSMYQNSNIQIHHYPNGIVTVNCARLLKADHHATNGVVHLIDKVISTITNNIQQIIEIEDTFETLRAAVAASGLNTMLEGNGQYTLLAPTNEAFEKIPSETLNRILGDPEALRDLLNNHILKSAMCAEAIVAGLSVETLEGTTLEVGCSGDMLTINGKAIISNKDILATNGVIHYIDELLIPDSAKTLFELAAESDVSTAIDLFRQAGLGNHLSGSERLTLLAPLNSVFKDGTPPIDAHTRNLLRNHIIKDQLASKYLYHGQTLETLGGKKLRVFVYRNSLCIENSCIAAHDKRGRYGTLFTMDRVLTPPMGTVMDVLKGDNRFSMLVAAIQSAGLTETLNREGVYTVFAPTNEAFRALPPRERSRLLGDAKELANILKYHIGDEILVSGGIGALVRLKSLQGDKLEVSLKNNVVSVNKEPVAEPDIMATNGVVHVITNVLQPPANRPQERGDELADSALEIFKQASAFSRASQRSVRLAPVYQKLLERMKH	0.452	
Recombinant Notch-1 protein (receptor, Species, supplier and limits not stated. Human assumed (mouse Q01705 is possible). Limits follow the usual commercial recombinant Notch-1 ectodomain fragment (N-terminal EGF repeats including …)) ARGPRCSQPGETCLNGGKCEAANGTEACVCGGAFVGPRCQDPNPCLSTPCKNAGTCHVVDRRGVADYACSCALGFSGPLCLTPLDNACLTNPCRNGGTCDLLTLTEYKCRCPPGWSGKSCQQADPCASNPCANGGQCLPFEASYICHCPPSFHGPTCRQDVNECGQKPGLCRHGGTCHNEVGSYRCVCRATHTGPNCERPYVPCSPSPCQNGGTCRPTGDVTHECACLPGFTGQNCEENIDDCPGNNCKNGGACVDGVNTYNCRCPPEWTGQYCTEDVDECQLMPNACQNGGTCHNTHGGYNCVCVNGWTGEDCSENIDDCASAACFHGATCHDRVASFYCECPHGRTGLLCHLNDACISNPCNEGSNCDTNPVNGKAICTCPSGYTGPACSQDVDECSLGANPCEHAGKCINTLGSFECQCLQGYTGPRCEIDVNECVSNPCQNDATCLDQIGEFQCICMPGYEGVHCEVNTDECASSPCLHNGRCLDKINEFQCECPTGFTGHLCQ		3.18
